Here are results for 41 sequences from the nanobody polyreactivity screen of Harvey et al. (2022).

The series is described as follows: yeast display, Sf9 membrane polyspecificity reagent, FACS + sequencing; frameworks hold sequencing errors. In outline:
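Nanobodies from a synthetic yeast display library (Saccharomyces cerevisiae BJ5465), induced 36–48 hours with galactose, were stained 1 hour at 4 °C with 10% biotinylated, detergent-solubilized Sf9 membrane reagent, enriched on streptavidin microbeads, then FACS-sorted. Anti-HA (expression) and streptavidin (reagent binding) fluorescence set low and high (top ~1%) gates. Polyreactivity labels come from the gate of origin. Genes were colony-PCR amplified, MiSeq 2 × 250 sequenced and filtered by CDR length.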
“QVQLVESGGGLVQAGGSLRLSCAASGRTFIVNTMGWYRQAPGKERELVAAITARGGRTYYADSVKGRFTISRDNAKNTVYLQMNSLKPEDTAVYYCNARTPPREAERYYWGQGTQVTVSS”: the “polyreactivity (PSR sort gate)” value is recorded as “low polyreactivity”.

For the sequence “QVQLVESGGGLVQAGGSLRLSCAASGFIFWQYAMGWYRQAPGKERELVAAITSRGGSTYYADSVKGRFTISRDNAKNTVYLKMNSLKPEDTAVYYCARLYPRHLNGDYWGQGTQVTVSS”, the “polyreactivity (PSR sort gate)” value was “high polyreactivity”.

Turning to “QVQLVESGGGLVQAGGSLRLSCAASRSIFYRYAMGWYRQEPGKERELVAAISRSGGTTYYADSVKGRFTISRDNAKNTVYLQMNSQKPEDTAVYYCAARVFHPYSTDPFYYWGQGTQVTVSS”, the “polyreactivity (PSR sort gate)” value is “high polyreactivity”.

Turning to “QVQLVESGGGLVQAGGSLRLSCAASGSIFRWYAMGWYRQAPGKERELVAAITGSGGRTYYADSVKGRFTISRDNAKNTVYLQMNSLNPEDTAVYYCATRYGREDYWGQGTQVTVSS”, the “polyreactivity (PSR sort gate)” value was “high polyreactivity”.

With “QVQLVESGGGLVQAGGTLRLSCAASGSTFLINAMGWYRQAPGKERELVAAISWGGGSTYYADSVKGRFTISRDNGKNSVDLQMNRLTPEDTAVYYCAARYWYRVDYWGQGTQVTVSS”, the “polyreactivity (PSR sort gate)” value is “high polyreactivity”.

For the sequence “QVQLVESGGGIVQAGGSLRLSCAASGGTFRVNAMVWYRQAPGKEREFVAAISGSGSSTYYADSVKGRFTISRDNAKNTVYLQMNSLKPEDTAVYYCAARSGVGGDNDYWGQGTQVTVSS”, the “polyreactivity (PSR sort gate)” value is recorded as “low polyreactivity”.

On to “QVQLVESGGGLVQAGGSLRLSCAASGRTFAYYAMGWYRQAPGKERELVAAISTSGTRTYYADSVKGRFTISRDNAKNTVYLQMNSLKPEDTAVYYCAARYRYQYEFDYWGQGTQVSVSS”, for which the “polyreactivity (PSR sort gate)” value is recorded as “high polyreactivity”.

For the sequence “QVQLVESGGGLVQAGGSHRLSCASSGRTFYRNAMGWYRQPPGKERELVAAISSGTSTNYADSVKGRFTISRDNAKNTVYLQMNSLKPEDTAVYYCAKERPRGAPAYYSRIYDYWGQGTQVTVSS”, the “polyreactivity (PSR sort gate)” value is recorded as “high polyreactivity”.

For “QVQLVESRGGLVQAGGSLRLSCAASGSIFRGYAMGWYRQAPGKERELVAAIRRGVITNYADSVKGRFTISRDNAKNTVYLQMNSLKPEDTAVYYCYAVRRWRTSQFDYWGQGTLVTVSS”, the “polyreactivity (PSR sort gate)” value is recorded as “low polyreactivity”.

On to “QVQLQESGGGLVQAGGSLRLTCAASGTITVLYKRGWFRQAPGKEREFVASINYGTSTYYADSVKGRFTVSRDSAINTVYLQMTSLKPEDTAVDYCAAAYRWQDVYRYWGQGTQVTVSS”, for which the “polyreactivity (PSR sort gate)” value was “low polyreactivity”.

“QVQLVESGGGLVQAGGSLRLSCAASGLIFYDNMGWYRQAPGKERELVAAISSSGGSTSYAYSVKGRFSISRDNAKYTVYLQMISLKREDTAVYYCAADSYRAYLGFVGFDYWGQGTQVTVSS”: the “polyreactivity (PSR sort gate)” value is on record as “low polyreactivity”.

“QVQLVESGGGLVQAGGSLRLSCAASGRTFDLNDMGWYRQAPGKEREFVADIDWSGGNTYYADSVKGRFIISRDNAKNTVYLQMNSLKPEDTAVYYCNARRKRSYDYWGQGTQVTVSS”: the “polyreactivity (PSR sort gate)” value is given as “low polyreactivity”.

Turning to “QVQLVESGGGLVQAGGSLRLSCAASGRTFYVNTMGWYRQAPGKEREFVAAITWRDGSTYYADSVKGRFTISRDNAKNTVYLQMNSLKPEDTAVYYCAARNSHDGYYDEYYYWGQGTQVTVSS”, the “polyreactivity (PSR sort gate)” value was “low polyreactivity”.

As for “QVQLVESGGGLVQAGGSLRLSCAASGRIFTYYAMGWYRQAPGKERELVAAITGSGGSTYYADSVKGRFTISRDNAKNTVYLQMNSLKPEDTAVYYCAAYWFTATWYYYWGQGTQVTVSS”, the “polyreactivity (PSR sort gate)” value is “high polyreactivity”.

“QVQLVESGGGLVQAGGSLRLSCAASGSIFFYYAMGWYRQAPGKERELVASISTDGSTYADSVKGRFTISRDNAKNTVSLQMNSLKPEDTAFYYCATRGAEAERFASYDFDYWGQGTQVTVSS”: the “polyreactivity (PSR sort gate)” value is “low polyreactivity”.

For “QVQLVESGGGLVQAGGSLRLSCAASGSIFGLYAMGWYRQAPGKERELVARITRSGGRTYYADSVKGRFTISRDNAKNTVYLQMNSLKPEDTAVYYCNKLLPSYVLPDDYWGQGTQVTVSS”, the “polyreactivity (PSR sort gate)” value is given as “low polyreactivity”.

Turning to “QVQLVETGGGLVQAGGSLRLSCAPSGRTFYYYAMGWYRQAPGKERELVAAISYSVGSTYYADSVKGRFTISRDNAKTTVYLQMNSLKPEDTEVYYCAASRASSSRGEYYYWGQGTLVTVSS”, the “polyreactivity (PSR sort gate)” value is “low polyreactivity”.

“QVQLVESGGGLVQAGGSLRLSCAASGSTFSYNAMGWYRQAPWKERELVAAISWNGDSTYADSVKGRFTISRDNAKNTVYLQMNSLKPEDTAVYYCAKDTIITPGRRKSPRYRHGYWGQGTQVTVSS”: the “polyreactivity (PSR sort gate)” value was “low polyreactivity”.

Turning to “QDQLVESGGGLVQAGGSHRLSCAASGLTLTDNALGWYRQAPGKERELVAAISQSGGRTSYADSVKGRFTISRDNAKNTVYLQMNSLKPEDTAVYYCNTRRGSVAKYGYWGQGTQVTVSS”, the “polyreactivity (PSR sort gate)” value is “high polyreactivity”.

For the sequence “QVQLVESGGGLVQAGGSLRLSCSDSGFTFARYTMGWYRQPPGKESELVAGISRSTGRTYYADSVKGLFTISRDNAKNTVYLQMNSLKPEDTAVYYCAARATRSLSRSMDYWGQGTQVTVSS”, the “polyreactivity (PSR sort gate)” value is recorded as “high polyreactivity”.

As to “QVTLVESGGGLVQAGGSLRLSCAASGSIRGYALGWSRQPPGKDRALVAAMSWRGGSTYYADSVKGRFTISRDNAKNTVYLQMNSLKPEETAVYYCAVEYVYWLSWYFQYDYWGQGTQVTVSS”, the “polyreactivity (PSR sort gate)” value is “low polyreactivity”.

Regarding “QVQLVESGGGLVQAGGSLRIICAASGRTLSGYAMGWYRQAPGKERELVAAISSDGRTYYADSVKGRFTISRDNAKNTVYLQMNSLKPEDTAVYYCAARANPYVLKYYYWGQGTQVTVSS”, the “polyreactivity (PSR sort gate)” value is recorded as “high polyreactivity”.

On to “QVQLVESGGGLDQAGGSLRLSCAASGSIFSVYAMGWYRQARGKERELVAAITSGTSTYADSVKGRFTISRDNAKNSVYLQMNSLKPEDTAVYYCAAESGSPGYYYWGQGTQVTVSS”, for which the “polyreactivity (PSR sort gate)” value was “low polyreactivity”.

With “QVQLVESGGGLVQAGGSLRLSCAASGSIFPPYAMGWYRQAPGKERELVASISNSGGSTYYADSVKGRFTISRDNAKNTVYLQMNSLKPEDTAVYYCAAYAVVSPSFTYGYWGQGTQVTVSS”, the “polyreactivity (PSR sort gate)” value is “high polyreactivity”.

With “QVQLVESGAGLVQAGGSLRLSCAASGFIFVKYVMGWYRQAPGKERELDATITNGVSTNYADSVKGRFTISRDNAKNTVYLQMNSLKPEDTAVYYCNTGSTAWYFSGDYWGQGTQVTVSS”, the “polyreactivity (PSR sort gate)” value is “low polyreactivity”.

Turning to “QVQLVESGGGLVQAGGSLRLSCAASGFIFRYYAMGWYRQAPGKERELVAAISSSGGCTYYADSVKGRFTISRDNSKNTVYLLMNRMKPEDTAVYFCAARDLRKLFSLYPYYYWGQGTHVTVSS”, the “polyreactivity (PSR sort gate)” value was “high polyreactivity”.

Regarding “QVQLVESGGGLVQAGGSLRLSCAASGRTFYGYAMGWYRQAPGKERELVAAISRRGGSTNYADSVKGRFTISRDNAQTTVYLQMNSLKPEDTAVYYCNKVVPHKPPTMDYWGQGTQVTVSS”, the “polyreactivity (PSR sort gate)” value was “high polyreactivity”.

Turning to “QVQLVESGGGLVQAGGSLRLSCAASGSTFQAKAMGWYRQAPGKERELVAAISWRGSSTYYADSVKGRFTISRDNAKNTVYLQMNSLKPEDPAVYYCAAASSGSYYRYEYWGQGTQVTVSS”, the “polyreactivity (PSR sort gate)” value is reported as “high polyreactivity”.

With “QVQLVESGGGLVQAGGSLRLSCAASGLTFGTNAMGWYRQAPGKERELVAAISTSSGSTYYADSVKGRFTISRDNAKNTVYLQMNSLKPEDTAGYYCAAVTVTKLSYYRYYYWGQGTQVTVSS”, the “polyreactivity (PSR sort gate)” value is listed as “low polyreactivity”.

In the case of “QVQLVESGGGLVQAGGSLSLICAASGGIIRYKAMGWYRQAPGKERELVAAISSGGNTNYADSVKGRFTISRDNAKNTVNLQMNSLKPEDTAVYYSAKAAPWRVYYHKAYGYDYWGQGPQVTVSS”, the “polyreactivity (PSR sort gate)” value is given as “high polyreactivity”.

For “QVQLVESGGGLVQAGGRLRLSCAASAFIFVTYAMGCYRQAPGKERELVAAITNSGGTTYYADSVKGRFTISRDNAKNTVYLQMNSLKPEDTAVYYCNTEDFFNVPEMDSWGQGTQVTVSS”, the “polyreactivity (PSR sort gate)” value was “low polyreactivity”.

Turning to “QVQLVESGGGLVKAGGSLRLSCAASGITFYIYDMGWYRQAPGKERELVATISWSDGRTYYADSVKGRFTISRDNAKNTVYLQMNSLKPEDTAVYYCASDWWYYQFDYEYWGQGTQVTVSS”, the “polyreactivity (PSR sort gate)” value was “low polyreactivity”.

With “QVQLVESGGGLVQAGGSLRLSCAASGIIFRGYAMGWYRQAPGKERELVAAISKSGGSTYYADSVKGRFTISRDNAKNTVYLQMNSLKPEDTAVYYCAADVYKQYGYYYWGQGTQVTVSS”, the “polyreactivity (PSR sort gate)” value is “high polyreactivity”.

Regarding “QVQLVESGGGLVQAGGSLRLSCAASGFIFYRYAMGWYRQAPGNERELVAAISSGGSTYYADSVKGRFTISRDNAKNTVYLQMNSLKPEDTAVYYCNAYHNYWRYRTDEMNYWGQGTQVTVSS”, the “polyreactivity (PSR sort gate)” value is recorded as “high polyreactivity”.

On to “QVQLVESGGGLVQAGGSLRLSCAASGSIFDDYAMGWYRQAPGKERELVAAISWSGGSTYYADSVKGRFTISRDNAKNTVYLQMNSLKPEDTAVYYCAAYDYDYLYGEYYWGQGTQVTVSS”, for which the “polyreactivity (PSR sort gate)” value is “low polyreactivity”.

As to “QVQLVESGGGLVQAGGSLRLSCAAYGFFYNAMGWYRPAPGKERELVAAISWSGASTYYADSVKGRFTISRDNAKNTVYLQMNSLKPEDTAVFYCNADPRLRQTRDYWGQGTQVSVSS”, the “polyreactivity (PSR sort gate)” value is on record as “high polyreactivity”.

As to “QVQLLESGGGLVQAGGSLRLSCAASGRIFRRYAMGWYRQAPGKEREFVAAITKSGGSTYYADSVKGRFTISRDNAKNTVYLQMNSLKPEDTAVYYCATYPQYYFRYDYWGQGTQVTVSS”, the “polyreactivity (PSR sort gate)” value is listed as “high polyreactivity”.

On to “QVQLVESGGGLVQAGGSLRLTCAASGRIFGLYAMGWSRQAPGKERELVAAISVISTGTYYADSVKGRFTISRDNAKNTVYLQMNSLKPEDTAVYYCNADSGQYTPPESDYWGQGTQVTVSS”, for which the “polyreactivity (PSR sort gate)” value is “low polyreactivity”.

Take “QVQLVESGGGLVQAGGSLRLSCAASGFIFFLYAMGWYRQAPGKERELVARISGGGDSTSYADSVKGRFTISRDNAKNTVYLQMNSLKPEDTAVYYCAADVWGSGGELGYWGQGTQVTVSS”: the “polyreactivity (PSR sort gate)” value is reported as “low polyreactivity”.

For “QVQLVESGGGLVQAGGSLRLSCAASGSIFEPNAMGWYRQAPGKEREFVAAISGSGGSTYYADSVKGRFTISRDNAKNTVYLQMNSLKPEDTAVYYCATRGKRSYFRTFYYWGQGTQVTVSS”, the “polyreactivity (PSR sort gate)” value is “high polyreactivity”.

As for “QVQLVESGGGLVQAGGSLRLSCAASGFTFVRNVMGWYRQAPGKERELVAAINTGGTTDYADSVKGRFTISRDNAKNTVYLQMNSLKPEDTAVYYCNADYDSQYHYLLRYDYWGQGTQVTVSS”, the “polyreactivity (PSR sort gate)” value is “low polyreactivity”.
